One block for each binder: values may come before it.
What was measured:
[1] = molecular target: T1, human DNA polymerase δ complex (PolD1-4) (human, UniProt P28340 1-1107; P49005 1-469; Q15054 1-466; Q9HCU8 1-107)
[2] = molecular target: T2, human Pol δ sub-unit POLD3, purified individually (human, UniProt Q15054 1-466); assay: cell-based or functional assay
T2 sequence (looked up): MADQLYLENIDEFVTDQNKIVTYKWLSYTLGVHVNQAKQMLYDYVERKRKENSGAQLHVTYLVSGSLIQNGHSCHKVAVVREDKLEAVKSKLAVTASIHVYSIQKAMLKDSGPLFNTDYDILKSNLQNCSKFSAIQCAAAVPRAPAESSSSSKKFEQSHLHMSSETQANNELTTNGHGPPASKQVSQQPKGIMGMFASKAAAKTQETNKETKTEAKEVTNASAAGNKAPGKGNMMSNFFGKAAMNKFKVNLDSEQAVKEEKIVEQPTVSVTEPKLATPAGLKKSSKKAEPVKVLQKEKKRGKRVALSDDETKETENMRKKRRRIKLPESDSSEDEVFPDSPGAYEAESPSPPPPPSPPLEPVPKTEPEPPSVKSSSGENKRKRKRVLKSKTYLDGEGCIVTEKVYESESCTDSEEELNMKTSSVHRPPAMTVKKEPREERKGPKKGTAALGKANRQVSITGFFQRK

[3] = molecular target: T1, human DNA polymerase δ complex (PolD1-4); assay: cell-based or functional assay
HelQ = molecular target: T3, HelQ (human, UniProt Q8TDG4 1-1101); assay: EMSA; 50 mM EDTA; HelQ 100-400 nM, DNA 15 nM; EMSA: 20 mM Tris-HCl pH 7.5, 100 mg/ml BSA (so in the source), 7% glycerol, 25 mM DTT, 50 mM EDTA, 25 nM DNA (Methods; 15 nM in legend), 37 C 10 min, 5% TBE gel; conditions: protein: recombinant; label: Cy5 end label; fork 1:2-25 paired with 2:27-50; 3' tail 25 nt (strand 1), 5' tail 26 nt (strand 2), 1 nt 5' overhang on strand 1
T3 sequence: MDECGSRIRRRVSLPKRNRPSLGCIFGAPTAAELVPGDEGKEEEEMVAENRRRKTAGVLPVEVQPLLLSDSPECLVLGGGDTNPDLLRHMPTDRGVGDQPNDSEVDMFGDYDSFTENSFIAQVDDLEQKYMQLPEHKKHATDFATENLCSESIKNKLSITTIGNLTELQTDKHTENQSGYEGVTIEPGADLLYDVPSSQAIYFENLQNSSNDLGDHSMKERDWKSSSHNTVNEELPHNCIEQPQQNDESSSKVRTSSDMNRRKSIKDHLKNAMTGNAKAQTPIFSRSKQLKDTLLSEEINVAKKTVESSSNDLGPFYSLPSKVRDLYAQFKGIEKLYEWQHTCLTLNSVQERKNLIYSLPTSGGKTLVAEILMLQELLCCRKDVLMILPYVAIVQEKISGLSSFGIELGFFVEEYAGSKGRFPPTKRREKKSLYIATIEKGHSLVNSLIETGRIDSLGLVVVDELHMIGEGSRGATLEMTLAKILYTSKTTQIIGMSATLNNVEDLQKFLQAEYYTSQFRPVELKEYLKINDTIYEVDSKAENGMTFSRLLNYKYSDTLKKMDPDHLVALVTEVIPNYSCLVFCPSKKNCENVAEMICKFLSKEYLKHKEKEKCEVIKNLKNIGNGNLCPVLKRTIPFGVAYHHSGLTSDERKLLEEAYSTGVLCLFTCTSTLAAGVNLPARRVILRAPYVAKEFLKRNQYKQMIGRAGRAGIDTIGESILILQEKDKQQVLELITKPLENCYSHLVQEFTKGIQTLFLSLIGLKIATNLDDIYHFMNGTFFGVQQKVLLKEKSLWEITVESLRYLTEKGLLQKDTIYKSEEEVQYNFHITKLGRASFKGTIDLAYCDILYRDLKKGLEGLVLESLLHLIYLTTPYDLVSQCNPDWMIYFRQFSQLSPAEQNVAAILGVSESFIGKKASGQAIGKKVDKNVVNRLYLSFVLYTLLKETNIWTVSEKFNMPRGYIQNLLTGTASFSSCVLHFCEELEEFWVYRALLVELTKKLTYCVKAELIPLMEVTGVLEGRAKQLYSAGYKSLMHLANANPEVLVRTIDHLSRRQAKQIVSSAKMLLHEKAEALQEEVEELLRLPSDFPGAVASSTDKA

T1 sequence (P28340 whole entry, stated change not applied, chain 1 of 3): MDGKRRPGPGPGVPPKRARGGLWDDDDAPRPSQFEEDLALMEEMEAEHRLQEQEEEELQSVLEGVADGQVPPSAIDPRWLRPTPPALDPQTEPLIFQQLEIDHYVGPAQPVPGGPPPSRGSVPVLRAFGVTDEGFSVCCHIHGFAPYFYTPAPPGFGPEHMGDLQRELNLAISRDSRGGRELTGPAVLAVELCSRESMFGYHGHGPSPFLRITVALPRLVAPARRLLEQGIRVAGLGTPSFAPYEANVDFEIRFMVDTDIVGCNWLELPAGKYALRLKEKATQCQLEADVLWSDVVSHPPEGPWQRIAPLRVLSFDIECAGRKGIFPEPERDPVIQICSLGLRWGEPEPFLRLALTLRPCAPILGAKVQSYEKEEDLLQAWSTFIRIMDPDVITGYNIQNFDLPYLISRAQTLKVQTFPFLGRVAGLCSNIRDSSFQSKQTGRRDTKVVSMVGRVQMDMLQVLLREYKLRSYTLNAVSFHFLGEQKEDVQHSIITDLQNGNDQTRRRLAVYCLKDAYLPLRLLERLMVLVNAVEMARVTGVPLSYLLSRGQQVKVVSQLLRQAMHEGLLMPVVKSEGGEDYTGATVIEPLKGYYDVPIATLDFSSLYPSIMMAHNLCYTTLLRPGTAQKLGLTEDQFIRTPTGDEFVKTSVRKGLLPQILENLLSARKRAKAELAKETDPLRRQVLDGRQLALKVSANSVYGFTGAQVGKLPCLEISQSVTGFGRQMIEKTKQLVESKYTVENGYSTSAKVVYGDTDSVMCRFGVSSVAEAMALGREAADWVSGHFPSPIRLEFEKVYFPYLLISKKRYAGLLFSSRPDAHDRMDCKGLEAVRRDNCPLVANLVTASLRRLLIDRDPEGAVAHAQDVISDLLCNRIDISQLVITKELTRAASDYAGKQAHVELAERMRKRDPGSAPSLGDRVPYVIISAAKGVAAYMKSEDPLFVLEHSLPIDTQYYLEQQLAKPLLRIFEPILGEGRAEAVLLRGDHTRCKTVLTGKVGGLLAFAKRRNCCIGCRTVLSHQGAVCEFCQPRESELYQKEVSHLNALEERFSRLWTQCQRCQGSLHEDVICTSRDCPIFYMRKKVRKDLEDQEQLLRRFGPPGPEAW
T1 sequence (P49005 whole entry, stated change not applied, chain 2 of 3): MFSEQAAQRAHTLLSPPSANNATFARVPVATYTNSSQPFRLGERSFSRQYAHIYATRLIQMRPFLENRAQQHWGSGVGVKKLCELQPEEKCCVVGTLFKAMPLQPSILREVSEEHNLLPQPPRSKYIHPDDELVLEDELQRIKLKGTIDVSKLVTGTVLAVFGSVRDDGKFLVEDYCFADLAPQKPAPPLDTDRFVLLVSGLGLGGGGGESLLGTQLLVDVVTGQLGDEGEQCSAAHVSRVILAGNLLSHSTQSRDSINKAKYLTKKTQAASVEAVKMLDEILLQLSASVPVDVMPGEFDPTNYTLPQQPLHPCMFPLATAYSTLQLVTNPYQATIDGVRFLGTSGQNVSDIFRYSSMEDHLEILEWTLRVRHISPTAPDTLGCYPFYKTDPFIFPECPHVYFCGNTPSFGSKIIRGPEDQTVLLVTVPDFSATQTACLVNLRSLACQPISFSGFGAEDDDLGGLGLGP
T1 sequence (Q9HCU8 whole entry, stated change not applied, chain 4 of 3): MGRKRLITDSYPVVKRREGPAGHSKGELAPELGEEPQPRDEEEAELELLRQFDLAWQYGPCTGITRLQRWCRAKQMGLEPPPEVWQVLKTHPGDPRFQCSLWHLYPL

end point of DNA synthesis by Pol δ (40 nM) pre-mixed with N-HelQ^RGx3 (5 nM), percent of DNA as product (68.8% uninhibited) [1]: 12.7%
B1: N-HelQ R51G/R52G/R53G (domain or fragment)
chain: MDECGSRIRRRVSLPKRNRPSLGCIFGAPTAAELVPGDEGKEEEEMVAENGGGKTAGVLPVEVQPLLLSDSPECLVLGGGDTNPDLLRHMPTDRGVGDQPNDSEVDMFGDYDSFTENSFIAQVDDLEQKYMQLPEHKKHATDFATENLCSESIKNKLSITTIGNLTELQTDKHTENQSGYEGVTIEPGADLLYDVPSSQAIYFENLQNSSNDLGDHSMKERDWKSSSHNTVNEELPHNCIE

FRET efficiency of DNA single-strand annealing by HelQ (125 nM) with POLD3 alone (150 nM) added; 0.50 without POLD3, 0.07 with POLD3 alone [2]: 0.87 FRET ratio
FRET ratio of DNA single-strand annealing by HelQ (125 nM) with Pol δ complex (150 nM) added; 0.51 without Pol δ [3]: 0.76 FRET ratio
B2: Human HelQ (enzyme, UniProt Q8TDG4 1-1101, looked up)
chain: T3 sequence

B3: forked DNA (MW12/MW14) (dsDNA)
DNA 1: GTCGGATCCTCTAGACAGCTCCATGATCACTGGCACTGGTAGAATTCGGC
DNA 2: CAACGTCATAGACGATTACATTGCTACATGGAGCTGTCTAGAGGATCCGA
binding result (HelQ): binds

Source: publication PMC9976902, “Interaction of human HelQ with DNA polymerase delta halts DNA synthesis and stimulates DNA single-strand annealing” (Nucleic Acids Research, 2022)
